This note sets out measurements from paper PMC4658667.

pKd: −log10 of the molar value. A value given as a limit tells only on which side of the number the result lay.

The target of experiment [1] is CdiI^Nlact immunity protein from Neisseria lactamica ATCC 23970, His6-tagged (Neisseria lactamica ATCC 23970). Description: BLI. On the technique in general: BLI is a label-free optical method that tracks binding on a fibre tip over time.
Experiment [2] deals with CdiIo11^EC869 immunity protein from Escherichia coli EC869, His6-tagged (Escherichia coli EC869). Description: BLI.

Take “CdiA-CTo11^EC869, orphan-11 CdiA-CT toxin from Escherichia coli EC869 (domain or fragment)”: in experiment [1], the negative-log Kd (pKd) (in general, −log10 of the Kd, conventionally taken in molar units) was 4.09.
On to “CdiA-CTo11^EC869/Δβ4β5, CdiA-CTo11^EC869 with the β-hairpin (Lys242–Thr252) replaced by a Gly-Ser-Gly linker (domain or fragment)”, for which, in experiment [2], the pKd is below 3.52.
